To fix the notation:
B2: RsbWCt, recombinant purified (SPR analyte) (natural protein, Chlamydia trachomatis, UniProt O84553 1-146, looked up)
chain: MTFSEGEQVFPATLQDLYPMLDFVKRAGVHCNCTQKKLSKLELACEELLLNIITHAYKGLPSTGWIRILCTETPDALLVRITDHGPAFNPITASPDIMRLDLPIEQRRIGGLGIFLAKYSVDVFDYERVNDTNVVTLTLYTKPHNS
notes: RsbW of Chlamydia trachomatis, cloned from serovar D/UW/CX genomic DNA; also called CT549; source: PC2 E. coli, pGEX-derived vector, purified

Assay [1] has as its target B2. Description: SPR; RsbV1, RsbV2 or their S-to-A / S-to-D derivatives immobilized on CM5 chip, RsbWCt analyte (2500nM for the wild-type ligands) with ATP, first and repeated injections; empty reference flow cell; 10mM HEPES, 150mM NaCl, 1mM MgCl2, 30°C. The following applies: both partners purified. In general terms: Surface plasmon resonance follows binding to a sensor surface in real time, without labels.

Assay [2] concerns the target T1, σ^66, recombinant purified, amine-coupled SPR ligand (Chlamydia trachomatis, UniProt P18333 1-571).
T1 construct: Sigma66 (RpoD) of Chlamydia trachomatis, cloned from serovar D/UW/CX genomic DNA; may be the same construct as m12 (GST-σ66); also called Sigma66; RpoD; source: PC2 E. coli, pGEX-derived vector, purified
T1 sequence (looked up): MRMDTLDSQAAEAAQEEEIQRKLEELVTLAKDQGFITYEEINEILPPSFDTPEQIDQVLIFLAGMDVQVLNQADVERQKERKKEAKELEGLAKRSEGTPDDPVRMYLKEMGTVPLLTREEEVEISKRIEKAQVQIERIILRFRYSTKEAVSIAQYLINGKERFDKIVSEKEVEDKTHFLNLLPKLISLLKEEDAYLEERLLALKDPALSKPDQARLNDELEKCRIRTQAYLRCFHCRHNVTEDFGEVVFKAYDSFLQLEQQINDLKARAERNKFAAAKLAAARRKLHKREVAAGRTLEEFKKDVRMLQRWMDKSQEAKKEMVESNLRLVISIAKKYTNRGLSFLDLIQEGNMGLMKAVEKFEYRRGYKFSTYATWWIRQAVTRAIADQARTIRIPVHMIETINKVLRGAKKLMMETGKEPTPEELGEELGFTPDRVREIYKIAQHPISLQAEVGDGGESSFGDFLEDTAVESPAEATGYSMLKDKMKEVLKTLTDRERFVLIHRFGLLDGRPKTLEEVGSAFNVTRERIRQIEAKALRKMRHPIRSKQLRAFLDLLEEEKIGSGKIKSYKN
The experiment in a line: SPR; Biacore 3000, CM5 chip; σ66, σ28 and σ54 amine-coupled to consecutive flow cells, RsbWCt analyte at various concentrations; reference flow cell with immobilized GST; Req as percent of theoretical Rmax; 10mM HEPES, 150mM NaCl, 1mM MgCl2, 30°C. As to conditions: both partners purified.

B1: RsbV1 S56A (natural protein)
chain: MSNFQKEEQGQTGILHLQGKLDGVSSPAVQESISESLSNGMKNIILDCGDLDYISAAGIRVLLQSYHQVGKNAGKIALTSVSKTVEQTLYVTGFLSYFKVFDSVNEALQALAKENS
notes: RsbV1 of Chlamydia trachomatis (serovar D/UW/CX) with the phospho-accepting serine 56 changed to alanine; also called alanine derivative of RsbV1; source: PC2 E. coli, pGEX-derived vector (site directed mutagenesis), purified
Regarding B1, the binding result in assay [1] was “binds”. With B2, the binding result in assay [2] is “binds”.

B3: RsbV2 S55A (natural protein)
chain: MEWIAREYKNIFIVSLKGDMDAVTVPALEEFLTKSIAKGRVNVLLNMEKVFYMSAAGLRTLLSLAKLTQNHNGKLCICCLRDEVADIIRIAGLDKVITIRKAEQESFSDF
notes: RsbV2 of Chlamydia trachomatis (serovar D/UW/CX) with the phospho-accepting serine 55 changed to alanine; also called alanine derivative of RsbV2; source: PC2 E. coli, pGEX-derived vector (site directed mutagenesis), purified
Take B3: in assay [1], the binding result is listed as “binds”.
